Values belong to the molecule of their own block, whether it stands above or below them.
How the values were obtained:
[1] = molecular target: T1, human MMP-9 enzyme active domain E402Q mutant (Homo sapiens, UniProt P14780, E402Q); test: Size exclusion chromatography binding to hMMP-9(cat)_E402Q_His6; conditions: 25 μM enzyme, 75 μM inhibitor
T1 construct: an enzyme active domain E402Q mutant (Phe107-Pro449, E402Q) and a His tag; made in house; host or cells: FreeStyle 293F
Procedure: (§1) With M91005 and M91011 prepared in (1-2), active hMMP-9(cat)_His6 prepared in (2-1-4), and hMMP-9(cat)_E402Q_His6 prepared in (11-3), the binding activity was evaluated by size exclusion chromatography. 25 μM active hMMP-9(cat)_His6 or hMMP-9(cat)_E402Q_His6 and 75 μM active MMP-9-binding peptide or hTIMP-1 (in-house preparation) were mixed, and reacted at 4° C. for 1 hour. After the reaction, 10 μl of the reaction solution was analyzed by size exclusion chromatography. The chromatographic conditions were as follows.
(§2) Detection: Absorbance (280 nm)
(§3) When only active hMMP-9(cat)_His6 was analyzed, the peak of active hMMP-9(cat)_His6 was detected at a retention time of 7.0 minutes (FIG. 53(A)). When a mixture reaction solution of active hMMP-9(cat)_His6 and hTIMP-1 or active MMP-9-binding peptides M91005 or M91011 was analyzed, the retention time of the peak of active hMMP-9(cat)_His6 was shifted to the high molecular weight side (FIG. 53(A)). […] When only human MMP-9(cat)_E402Q_His6 was analyzed, the peak of hMMP-9(cat)_E402Q_His6 was detected at a retention time of 7.1 minutes (FIG. 53(B)). When a mixed reaction solution of human MMP-9(cat)_E402Q_His6 and hTIMP-1 was analyzed, the retention time of the peak of hMMP-9(cat)_E402Q_His6 was shifted to the high molecular weight side (FIG. 53(B)). […] In contrast, when a mixture reaction solution of hMMP-9(cat)_E402Q_His6 and the active MMP-9-binding peptide M91005 or M91011 was analyzed, the retention time of the peak of the hMMP-9(cat)_E402Q_His6 was not changed (FIG. 53(B)). It should be noted that when only hTIMP-1 or the active MMP-9-binding peptides M91005, M91011 was analyzed, the peak of hTIMP-1 was detected at a retention time of 7.3 minutes, the peak of the active MMP-9-binding peptide M91005 was detected at a retention time of 8.2 minutes, and the peak of the active MMP-9-binding peptide M91011 was detected at a retention time of 8.1 minutes (FIG. 53(C)).

[2] = molecular target: T2, wild-type active hMMP-9(cat) (Homo sapiens, UniProt P14780); test: Inhibition of wild-type active hMMP-9(cat), substrate peptide; format: biochemical; conditions: wild-type active hMMP-9(cat) 1 nM, substrate peptide 10 μM
T2 construct: and an enzyme active domain (Phe107-Pro449) was constructed; His tag (before the propeptide) (N, cleaved yes); made in house; host or cells: FreeStyle 293F
Procedure: (§4) The substrate peptide MOCAc-KPLGL-A2pr(Dnp)-AR-NH2 (SEQ ID NO: 30 (FIG. 46)) (PEPTIDE […], INC.; 3226-v) was dissolved in water to 1 mM, then diluted with an assay buffer (50 mM Tris-HCl, 200 mM NaCl, 2 mM CaCl2, pH7.5) and used at the final concentration of 10 μM. 50 μl each of the active hMMP-9(cat) diluted with the assay buffer or the active hMMP-9(cat)_XnnnY and the active MMP-9-binding peptide or sc-311438 (Santa Cruz Biotechnology, Inc.) were mixed, and reacted at 37° C. for 1 hour. Then, 100 μl of the substrate diluted with the assay buffer was added, and fluorescence signals (excitation 328 nm/emission 393 nm) were measured with Enspire (PerkinElmer, Inc.). The final concentrations of the active hMMP-9(cat) and the active hMMP-9(cat)_XnnnY were at 1 nM, and the final concentrations of the active MMP-9-binding peptide and sc-311438 were at 0.5 to 330 nM. For reactions and measurements, a ProteoSave™ SS96F black plate (Sumitomo Bakelite Co., Ltd.) was used.
(§5) The 50% inhibitory concentration (IC50) of each binding peptide was calculated using GraphPad Prism (version 5.0; GraphPad Software), by calculating the substrate peptide degradation rate of the active MMP-9-binding peptide at each concentration, and taking the degradation rate at an inhibitor concentration of 0 nM as 100% (FIGS. 54(A) and 54(B)). […]

[3] = molecular target: T3, active hMMP-9(cat)_Y179A (Homo sapiens, UniProt P14780, Y179A); test: Inhibition of human MMP-9 mutant Y179A; format: biochemical
T3 construct: of the enzyme active domain (Phe107-Pro449) were constructed; His tag (before the propeptide) (N, cleaved yes); made in house; host or cells: FreeStyle 293F
Procedure: as §4, §5

[4] = molecular target: T4, active hMMP-9(cat)_D185A (Homo sapiens, UniProt P14780, D185A); test: Inhibition of human MMP-9 mutant D185A; format: biochemical
T4 construct: of the enzyme active domain (Phe107-Pro449) were constructed; His tag (before the propeptide) (N, cleaved yes); made in house; host or cells: FreeStyle 293F
Procedure: as §4, §5

[5] = molecular target: T5, active hMMP-9(cat)_F192A (Homo sapiens, UniProt P14780, F192A); test: Inhibition of human MMP-9 mutant F192A; format: biochemical
T5 construct: of the enzyme active domain (Phe107-Pro449) were constructed; His tag (before the propeptide) (N, cleaved yes); made in house; host or cells: FreeStyle 293F
Procedure: as §4, §5

[6] = molecular target: T6, active hMMP-9(cat)_P193A (Homo sapiens, UniProt P14780, P193A); test: Inhibition of human MMP-9 mutant P193A; format: biochemical
T6 construct: of the enzyme active domain (Phe107-Pro449) were constructed; His tag (before the propeptide) (N, cleaved yes); made in house; host or cells: FreeStyle 293F
Procedure: as §4, §5

[7] = molecular target: T7, active hMMP-9(cat)_Y393A (Homo sapiens, UniProt P14780, Y393A); test: Inhibition of human MMP-9 mutant Y393A; format: biochemical
T7 construct: of the enzyme active domain (Phe107-Pro449) were constructed; His tag (before the propeptide) (N, cleaved yes); made in house; host or cells: FreeStyle 293F
Procedure: as §4, §5

[8] = molecular target: T8, active hMMP-9(cat)_L397A (Homo sapiens, UniProt P14780, L397A); test: Inhibition of human MMP-9 mutant L397A; format: biochemical
T8 construct: of the enzyme active domain (Phe107-Pro449) were constructed; His tag (before the propeptide) (N, cleaved yes); made in house; host or cells: FreeStyle 293F
Procedure: as §4, §5

[9] = molecular target: T9, active hMMP-9(cat)_V398A (Homo sapiens, UniProt P14780, V398A); test: Inhibition of human MMP-9 mutant V398A; format: biochemical
T9 construct: of the enzyme active domain (Phe107-Pro449) were constructed; His tag (before the propeptide) (N, cleaved yes); made in house; host or cells: FreeStyle 293F
Procedure: as §4, §5

[10] = molecular target: T10, active hMMP-9(cat)_M422I (Homo sapiens, UniProt P14780, M422I); test: Inhibition of human MMP-9 mutant M422I; format: biochemical
T10 construct: of the enzyme active domain (Phe107-Pro449) were constructed; His tag (before the propeptide) (N, cleaved yes); made in house; host or cells: FreeStyle 293F
Procedure: as §4, §5

[11] = molecular target: T11, active hMMP-9(cat)_Y423A (Homo sapiens, UniProt P14780, Y423A); test: Inhibition of human MMP-9 mutant Y423A; format: biochemical
T11 construct: of the enzyme active domain (Phe107-Pro449) were constructed; His tag (ahead of the propeptide in the precursor) (N, cleaved yes); made in house; host or cells: FreeStyle 293F
Procedure: as §4, §5

[12] = molecular target: T12, active hMMP-9(cat)_R424T (Homo sapiens, UniProt P14780, R424T); test: Inhibition of human MMP-9 mutant R424T; format: biochemical
T12 construct: of the enzyme active domain (Phe107-Pro449) were constructed; His tag (ahead of the propeptide in the precursor) (N, cleaved yes); made in house; host or cells: FreeStyle 293F
Procedure: as §4, §5

[13] = molecular target: active human MMP-9 enzyme active domain (Homo sapiens, UniProt P14780); test: Size exclusion chromatography binding to active hMMP-9(cat)_His6; design: an enzyme active domain (Phe107-Pro449) and a His tag; made in house; host or cells: FreeStyle 293F; conditions: 25 μM enzyme, 75 μM inhibitor
Procedure: as §1, §2, §3

[14] = molecular target: T13, active hMMP-9(cat)_F110A (Homo sapiens, UniProt P14780, F110A); test: Inhibition of human MMP-9 mutant F110A; format: biochemical
T13 construct: of the enzyme active domain (Phe107-Pro449) were constructed; His tag (before the propeptide) (N, cleaved yes); made in house; host or cells: FreeStyle 293F
Procedure: as §4, §5

[15] = molecular target: T14, active hMMP-9(cat)_L187A (Homo sapiens, UniProt P14780, L187A); test: Inhibition of human MMP-9 mutant L187A; format: biochemical
T14 construct: of the enzyme active domain (Phe107-Pro449) were constructed; His tag (before the propeptide) (N, cleaved yes); made in house; host or cells: FreeStyle 293F
Procedure: as §4, §5

[16] = molecular target: T15, active hMMP-9(cat)_Q199G (Homo sapiens, UniProt P14780, Q199G); test: Inhibition of human MMP-9 mutant Q199G; format: biochemical
T15 construct: of the enzyme active domain (Phe107-Pro449) were constructed; His tag (before the propeptide) (N, cleaved yes); made in house; host or cells: FreeStyle 293F
Procedure: as §4, §5

[17] = molecular target: T16, active hMMP-9(cat)_Y420A (Homo sapiens, UniProt P14780, Y420A); test: Inhibition of human MMP-9 mutant Y420A; format: biochemical
T16 construct: of the enzyme active domain (Phe107-Pro449) were constructed; His tag (before the propeptide) (N, cleaved yes); made in house; host or cells: FreeStyle 293F
Procedure: as §4, §5

T10 sequence (P14780 107-449 M422I): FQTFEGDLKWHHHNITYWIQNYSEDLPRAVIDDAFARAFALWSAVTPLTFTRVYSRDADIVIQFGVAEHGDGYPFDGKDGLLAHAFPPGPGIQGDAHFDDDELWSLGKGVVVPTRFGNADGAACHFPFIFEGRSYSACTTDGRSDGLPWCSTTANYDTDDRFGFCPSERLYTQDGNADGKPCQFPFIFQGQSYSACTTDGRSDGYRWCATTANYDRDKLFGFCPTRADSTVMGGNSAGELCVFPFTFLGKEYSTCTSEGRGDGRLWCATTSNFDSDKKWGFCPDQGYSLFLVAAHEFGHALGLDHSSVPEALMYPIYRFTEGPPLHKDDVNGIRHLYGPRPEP
T3 sequence (P14780 107-449 Y179A): as the sequence (P14780 107-449 M422I) above, with Y73A, I316M counted along it
Sequence of active human MMP-9 enzyme active domain (P14780 107-449): as the sequence (P14780 107-449 M422I) above, with I316M counted along it
T2 sequence (P14780 107-449): as the sequence (P14780 107-449 M422I) above, with I316M counted along it
T5 sequence (P14780 107-449 F192A): as the sequence (P14780 107-449 M422I) above, with F86A, I316M counted along it
T1 sequence (P14780 107-449 E402Q): as the sequence (P14780 107-449 M422I) above, with E296Q, I316M counted along it
T9 sequence (P14780 107-449 V398A): as the sequence (P14780 107-449 M422I) above, with V292A, I316M counted along it
T7 sequence (P14780 107-449 Y393A): as the sequence (P14780 107-449 M422I) above, with Y287A, I316M counted along it
T8 sequence (P14780 107-449 L397A): as the sequence (P14780 107-449 M422I) above, with L291A, I316M counted along it
T11 sequence (P14780 107-449 Y423A): as the sequence (P14780 107-449 M422I) above, with I316M, Y317A counted along it
T12 sequence (P14780 107-449 R424T): as the sequence (P14780 107-449 M422I) above, with I316M, R318T counted along it
T15 sequence (P14780 107-449 Q199G): as the sequence (P14780 107-449 M422I) above, with Q93G, I316M counted along it
T16 sequence (P14780 107-449 Y420A): as the sequence (P14780 107-449 M422I) above, with Y314A, I316M counted along it
T14 sequence (P14780 107-449 L187A): as the sequence (P14780 107-449 M422I) above, with L81A, I316M counted along it
T6 sequence (P14780 107-449 P193A): as the sequence (P14780 107-449 M422I) above, with P87A, I316M counted along it
T13 sequence (P14780 107-449 F110A): as the sequence (P14780 107-449 M422I) above, with F4A, I316M counted along it
T4 sequence (P14780 107-449 D185A): as the sequence (P14780 107-449 M422I) above, with D79A, I316M counted along it

IC50 [2]: 17 ± 5 nM
IC50 increase compared to wild type [3]: 4.9 times
IC50 increase compared to wild type [4]: 19.0 times
IC50 increase compared to wild type [5]: 5.0 times
IC50 increase compared to wild type [6]: 6.5 times
IC50 increase compared to wild type [7]: > 57.6 times
IC50 increase compared to wild type [8]: 3.5 times
IC50 increase compared to wild type [9]: 4.8 times
IC50 increase compared to wild type [10]: 2.6 times
IC50 increase compared to wild type [11]: > 20.0 times
IC50 increase compared to wild type [12]: 2.7 times
B1: M91011: SPINK2 mutant active MMP-9-binding peptide, SEQ ID NO: 7 (FIG. 21) (protein)
chain: DPQFGLFSKYRTPNCMMYKYAQCSHKSQPVCGSDMSTYANECTLCMKIREGGHNIKIIRNGPC
modifications: binder
binding to human MMP-9 enzyme active domain E402Q mutant (peak shift) [1]: do not bind to human MMP-9 enzyme active domain E402Q mutant
binding to active human MMP-9 enzyme active domain (peak shift) [13]: bind to the active human MMP-9 enzyme active domain

IC50 [2]: 17 ± 7 nM
IC50 increase compared to wild type [14]: 4.0 times
IC50 increase compared to wild type [3]: 3.2 times
IC50 increase compared to wild type [15]: 6.7 times
IC50 increase compared to wild type [5]: > 57.8 times
IC50 increase compared to wild type [16]: 2.3 times
IC50 increase compared to wild type [7]: 2.7 times
IC50 increase compared to wild type [8]: 2.2 times
IC50 increase compared to wild type [9]: 2.2 times
IC50 increase compared to wild type [17]: 3.1 times
IC50 increase compared to wild type [10]: 2.6 times
IC50 increase compared to wild type [11]: 13.2 times
B2: M91005: SPINK2 mutant active MMP-9-binding peptide, SEQ ID NO: 5 (FIG. 19) (protein)
chain: DPQFGLFSKYRTPNCRKRGGPSCQMSYNPVCGSDMSTYANECTLCMKIREGGHNIKIIRNGPC
modifications: binder
binding to human MMP-9 enzyme active domain E402Q mutant (peak shift) [1]: do not bind to human MMP-9 enzyme active domain E402Q mutant
binding to active human MMP-9 enzyme active domain (peak shift) [13]: bind to the active human MMP-9 enzyme active domain
